Measurements reported in patent US20240043495A1, “DSG2 COMPOSITIONS AND METHODS FOR THE TREATMENT OF COVID-19” (priority 2020, published 2024).

Legend:
Anti-DSG2 antibody [1] = assay: anti-DSG2 antibody MSD assay; inhibition of the signal of anti-DSG2 antibody at 200 ng/mL (control)
Anti-DSG2 antibody [2] = assay: anti-DSG2 antibody MSD assay; inhibition of the signal of anti-DSG2 antibody at 1000 ng/mL (control)
[3] = system: human iPSC cardiomyocytes; assay: CiPA multielectrode array (MEA) assay, cardiomyocyte sodium spike; format: cell-based; conditions: voltage (μV) at 0-96 hours; antibodies/IgG 0.5 μg/mL; lidocaine 10 μM; FIG. 5
Procedure: To determine the effect of anti-DSG2 antibodies in cardiomyocytes, the cardiac in vitro proarrhythmia (CiPA) assay was performed (Sager et al. Am Heart J 2014; 167:292-300; the contents of which are herein incorporated by reference in its entirety). CiPA is envisioned to consist of four components: (1) an evaluation of the effects of test agents on cardiac ion channel assays; (2) in silico modeling of the cardiac action potential based on the ion channel results to integrate the data with cardiac function; (3) experimental measurement of test agent effects in human ventricular myocytes to confirm the modeling result; and (4) scoring the results. […] The sodium spike quantified below is a measurement of the specific sodium channel current in the cardiomyocyte and is also described in Blinova K, et al. Cell Rep. […] The parameters evaluated include measuring a change in the spike in the component of electrical signal propagation (e.g. sodium spike) and cell index—a function of cell impedance and cell number. […]
Commercially available anti-DSG2 antibodies were tested in the cardiomyocyte CiPA assay. […] The voltage (μV) is measured at time intervals of 0, 1 hour, 12 hours, 24 hours, 48 hours, 72 hours, and 96 hours. […]

[4] = system: human iPSC cardiomyocytes; assay: iPSC-derived cardiomyocyte MEA assay, cell index; format: cell-based; conditions: antibodies 0.00005 to 5 μg/mL; lidocaine 3 to 100 μM
Procedure: To determine the effect of anti-DSG2 antibodies in cardiomyocytes, the cardiac in vitro proarrhythmia (CiPA) assay was performed (Sager et al. Am Heart J 2014; 167:292-300; the contents of which are herein incorporated by reference in its entirety). CiPA is envisioned to consist of four components: (1) an evaluation of the effects of test agents on cardiac ion channel assays; (2) in silico modeling of the cardiac action potential based on the ion channel results to integrate the data with cardiac function; (3) experimental measurement of test agent effects in human ventricular myocytes to confirm the modeling result; and (4) scoring the results. The multielectrode array (MEA) assay is a component of CiPA which uses human induced pluripotent stem cell (iPSC)-derived cardiomyocytes to evaluate two-dimensional excitation propagation by recording spontaneous ECG-like field potentials. The sodium spike quantified below is a measurement of the specific sodium channel current in the cardiomyocyte and is also described in Blinova K, et al. Cell Rep. 2018 Sep. 25; 24(13):3582-3592 (the contents of which are herein incorporated by reference in its entirety). […] The parameters evaluated include measuring a change in the spike in the component of electrical signal propagation (e.g. sodium spike) and cell index—a function of cell impedance and cell number. […]

[5] = system: anti-DSG2 antibodies in sera of post-COVID-19 patients; assay: Electrochemical immunoassay: blocking of post-COVID-19 patient sera binding to the DSG2 extracellular domain; set-up: species or system human; conditions: fusion polypeptide 10 μg/mL, post-COVID-19 patient sera 10% (v/v), FIG. 3
Procedure: DSG2 fusion polypeptides were investigated for the ability to block the binding of anti-DSG2 antibodies in sera of post-COVID-19 patients to the DSG2 extracellular domain in an electrochemical immunoassay. The fusion polypeptides were added to a final concentration of 10 μg/mL and patient sera were used at a final concentration of 10% (v/v). The results are shown in the series of bar charts in FIG. 3, where the numbers 001, 002, 003, 004, 005 and 006 indicate individual post-COVID-19 patient serum samples.
In FIG. 3, the first data series from the left is for DSG2FP #1 (described above as amino acids 49-608 of SEQ ID NO:30; Linker (IEGRMD (SEQ ID NO: 28)); amino acids 100-330 of IgG1 (SEQ ID NO: 4). The second data series from the left is for DSG2(50-602)-6xHis, which is a fusion polypeptide of DSG2 amino acids 50-602 of SEQ ID NO: 1 (complete extracellular domain) to a hexahistidine peptide tag. The third data series from the left is for a combination of fusion polypeptides which includes EC1(50-155)-6xHis, a fusion of DSG2 amino acids 50-155 of SEQ ID NO: 1 (EC1) to a hexahistidine peptide tag and EC2(151-268)-6xHis, a fusion of DSG2 amino acids 151-268 of SEQ ID NO: 1 (EC2) to a hexahistidine peptide tag. The fourth data series from the left is for EA(491-602)-6xHis, a fusion of DSG2 amino acids 491-602 of SEQ ID NO: 1 (EA) to a hexahistidine peptide tag. […]

## recombinant human desmoglein-2 Fc chimera protein, CF (R&D Systems) (Fc fusion)
Anti-DSG2 antibody [1]
  % inhibition: 63.8%
Anti-DSG2 antibody [2]
  % inhibition: 88.4%

## CCN(CC)CC(=O)Nc1c(C)cccc1C [Lidocaine, lidocaine]
[3]
  effect on cardiomyocyte sodium spike: dampen the sodium spike
[4]
  effect on cell index (in words): marked reduction in cell index and likely cell death

B1: EA(491-602)-6xHis: fusion of DSG2 amino acids 491-602 of SEQ ID NO: 1 (EA) to a hexahistidine peptide tag (protein, listed as Homo sapiens)
chain: DINDNCPTLIEPVQTICHDAEYVNVTAEDLDGHPNSGPFSFSVIDKPPGMAEKWKIARQESTSVLLQQSEKKLGRSEIQFLISDNQGFSCPEKQVLTLTVCECLHGSGCREA
modifications: C-terminal 6xHis tag
[5]
  blocking activity (in words): some effectiveness in blocking activity

B2: DSG2(50-602)-6xHis: fusion polypeptide of DSG2 amino acids 50-602 of SEQ ID NO: 1 (complete extracellular domain) to a hexahistidine peptide tag (protein, listed as Homo sapiens)
chain: AWITAPVALREGEDLSKKNPIAKIHSDLAEERGLKITYKYTGKGITEPPFGIFVFNKDTGELNVTSILDREETPFFLLTGYALDARGNNVEKPLELRIKVLDINDNEPVFTQDVFVGSVEELSAAHTLVMKINATDADEPNTLNSKISYRIVSLEPAYPPVFYLNKDTGEIYTTSVTLDREEHSSYTLTVEARDGNGEVTDKPVKQAQVQIRILDVNDNIPVVENKVLEGMVEENQVNVEVTRIKVFDADEIGSDNWLANFTFASGNEGGYFHIETDAQTNEGIVTLIKEVDYEEMKNLDFSVIVANKAAFHKSIRSKYKPTPIPIKVKVKNVKEGIHFKSSVISIYVSESMDRSSKGQIIGNFQAFDEDTGLPAHARYVKLEDRDNWISVDSVTSEIKLAKLPDFESRYVQNGTYTVKIVAISEDYPRKTITGTVLINVEDINDNCPTLIEPVQTICHDAEYVNVTAEDLDGHPNSGPFSFSVIDKPPGMAEKWKIARQESTSVLLQQSEKKLGRSEIQFLISDNQGFSCPEKQVLTLTVCECLHGSGCREA
modifications: C-terminal hexahistidine tag
[5]; 100% inhibition = complete blocking
  blocking activity (% inhibition): at least 70%
